B1: FAP (4B9) - CD28 (CD28(SA)_Variant 16) 1+1 (bispecific antibody, human IgG1, kappa, L234A L235A)
heavy 1: EIVLTQSPGTLSLSPGERATLSCRASQSVTSSYLAWYQQKPGQAPRLLINVGSRRATGIPDRFSGSGSGTDFTLTISRLEPEDFAVYYCQQGIMLPPTFGQGTKVEIKSSASTKGPSVFPLAPSSKSTSGGTAALGCLVKDYFPEPVTVSWNSGALTSGVHTFPAVLQSSGLYSLSSVVTVPSSSLGTQTYICNVNHKPSNTKVDKKVEPKSCDKTHTCPPCPAPEAAGGPSVFLFPPKPKDTLMISRTPEVTCVVVDVSHEDPEVKFNWYVDGVEVHNAKTKPREEQYNSTYRVVSVLTVLHQDWLNGKEYKCKVSNKALGAPIEKTISKAKGQPREPQVCTLPPSRDELTKNQVSLSCAVKGFYPSDIAVEWESNGQPENNYKTTPPVLDSDGSFFLVSKLTVDKSRWQQGNVFSCSVMHEALHNHYTQKSLSLSP
light 1: EVQLLESGGGLVQPGGSLRLSCAASGFTFSSYAMSWVRQAPGKGLEWVSAIIGSGASTYYADSVKGRFTISRDNSKNTLYLQMNSLRAEDTAVYYCAKGWFGGFNYWGQGTLVTVSSASVAAPSVFIFPPSDEQLKSGTASVVCLLNNFYPREAKVQWKVDNALQSGNSQESVTEQDSKDSTYSLSSTLTLSKADYEKHKVYACEVTHQGLSSPVTKSFNRGEC
heavy 2: not shown
light 2: not shown
notes: huIgG1 PG-LALA CrossFab 1+1; also called P1AE3135
B2: FAP (4B9) - CD28 (CD28(SA)_Variant 12) 1+1 (bispecific antibody, human IgG1, kappa, L234A L235A)
heavy 1: EIVLTQSPGTLSLSPGERATLSCRASQSVTSSYLAWYQQKPGQAPRLLINVGSRRATGIPDRFSGSGSGTDFTLTISRLEPEDFAVYYCQQGIMLPPTFGQGTKVEIKSSASTKGPSVFPLAPSSKSTSGGTAALGCLVKDYFPEPVTVSWNSGALTSGVHTFPAVLQSSGLYSLSSVVTVPSSSLGTQTYICNVNHKPSNTKVDKKVEPKSCDKTHTCPPCPAPEAAGGPSVFLFPPKPKDTLMISRTPEVTCVVVDVSHEDPEVKFNWYVDGVEVHNAKTKPREEQYNSTYRVVSVLTVLHQDWLNGKEYKCKVSNKALGAPIEKTISKAKGQPREPQVCTLPPSRDELTKNQVSLSCAVKGFYPSDIAVEWESNGQPENNYKTTPPVLDSDGSFFLVSKLTVDKSRWQQGNVFSCSVMHEALHNHYTQKSLSLSP
light 1: EVQLLESGGGLVQPGGSLRLSCAASGFTFSSYAMSWVRQAPGKGLEWVSAIIGSGASTYYADSVKGRFTISRDNSKNTLYLQMNSLRAEDTAVYYCAKGWFGGFNYWGQGTLVTVSSASVAAPSVFIFPPSDEQLKSGTASVVCLLNNFYPREAKVQWKVDNALQSGNSQESVTEQDSKDSTYSLSSTLTLSKADYEKHKVYACEVTHQGLSSPVTKSFNRGEC
heavy 2: not shown
light 2: DIQMTQSPSSLSASVGDRVTITCRASQNIYVWLNWYQQKPGKAPKLLIYKASNLYSGVPSRFSGSRSGTDFTLTISSLQPEDFATYYCQQGQTYPYTFGQGTKLEIKRTVAAPSVFIFPPSDRKLKSGTASVVCLLNNFYPREAKVQWKVDNALQSGNSQESVTEQDSKDSTYSLSSTLTLSKADYEKHKVYACEVTHQGLSSPVTKSFNRGEC
notes: huIgG1 PG-LALA CrossFab 1+1; also called P1AE3133
B3: FAP (4B9)-CD28 (CD28(SA)_Variant 8) 1+1 (bispecific antibody, human IgG1, kappa, L234A L235A)
heavy 1: EIVLTQSPGTLSLSPGERATLSCRASQSVTSSYLAWYQQKPGQAPRLLINVGSRRATGIPDRFSGSGSGTDFTLTISRLEPEDFAVYYCQQGIMLPPTFGQGTKVEIKSSASTKGPSVFPLAPSSKSTSGGTAALGCLVKDYFPEPVTVSWNSGALTSGVHTFPAVLQSSGLYSLSSVVTVPSSSLGTQTYICNVNHKPSNTKVDKKVEPKSCDKTHTCPPCPAPEAAGGPSVFLFPPKPKDTLMISRTPEVTCVVVDVSHEDPEVKFNWYVDGVEVHNAKTKPREEQYNSTYRVVSVLTVLHQDWLNGKEYKCKVSNKALGAPIEKTISKAKGQPREPQVCTLPPSRDELTKNQVSLSCAVKGFYPSDIAVEWESNGQPENNYKTTPPVLDSDGSFFLVSKLTVDKSRWQQGNVFSCSVMHEALHNHYTQKSLSLSP
light 1: EVQLLESGGGLVQPGGSLRLSCAASGFTFSSYAMSWVRQAPGKGLEWVSAIIGSGASTYYADSVKGRFTISRDNSKNTLYLQMNSLRAEDTAVYYCAKGWFGGFNYWGQGTLVTVSSASVAAPSVFIFPPSDEQLKSGTASVVCLLNNFYPREAKVQWKVDNALQSGNSQESVTEQDSKDSTYSLSSTLTLSKADYEKHKVYACEVTHQGLSSPVTKSFNRGEC
heavy 2: not shown
light 2: not shown
notes: huIgG1 PG-LALA CrossFab 1+1; also called P1AE3131
B4: FAP (4B9) - CD28 (CD28(SA)_Variant 17) 1+1 (bispecific antibody, human IgG1, kappa, L234A L235A)
heavy 1: EIVLTQSPGTLSLSPGERATLSCRASQSVTSSYLAWYQQKPGQAPRLLINVGSRRATGIPDRFSGSGSGTDFTLTISRLEPEDFAVYYCQQGIMLPPTFGQGTKVEIKSSASTKGPSVFPLAPSSKSTSGGTAALGCLVKDYFPEPVTVSWNSGALTSGVHTFPAVLQSSGLYSLSSVVTVPSSSLGTQTYICNVNHKPSNTKVDKKVEPKSCDKTHTCPPCPAPEAAGGPSVFLFPPKPKDTLMISRTPEVTCVVVDVSHEDPEVKFNWYVDGVEVHNAKTKPREEQYNSTYRVVSVLTVLHQDWLNGKEYKCKVSNKALGAPIEKTISKAKGQPREPQVCTLPPSRDELTKNQVSLSCAVKGFYPSDIAVEWESNGQPENNYKTTPPVLDSDGSFFLVSKLTVDKSRWQQGNVFSCSVMHEALHNHYTQKSLSLSP
light 1: EVQLLESGGGLVQPGGSLRLSCAASGFTFSSYAMSWVRQAPGKGLEWVSAIIGSGASTYYADSVKGRFTISRDNSKNTLYLQMNSLRAEDTAVYYCAKGWFGGFNYWGQGTLVTVSSASVAAPSVFIFPPSDEQLKSGTASVVCLLNNFYPREAKVQWKVDNALQSGNSQESVTEQDSKDSTYSLSSTLTLSKADYEKHKVYACEVTHQGLSSPVTKSFNRGEC
heavy 2: not shown
light 2: not shown
notes: huIgG1 PG-LALA CrossFab 1+1; also called P1AE3136
B5: FAP (4B9) - CD28 (CD28(SA)_Variant 15) 1+1 (bispecific antibody, human IgG1, kappa, L234A L235A)
heavy 1: EIVLTQSPGTLSLSPGERATLSCRASQSVTSSYLAWYQQKPGQAPRLLINVGSRRATGIPDRFSGSGSGTDFTLTISRLEPEDFAVYYCQQGIMLPPTFGQGTKVEIKSSASTKGPSVFPLAPSSKSTSGGTAALGCLVKDYFPEPVTVSWNSGALTSGVHTFPAVLQSSGLYSLSSVVTVPSSSLGTQTYICNVNHKPSNTKVDKKVEPKSCDKTHTCPPCPAPEAAGGPSVFLFPPKPKDTLMISRTPEVTCVVVDVSHEDPEVKFNWYVDGVEVHNAKTKPREEQYNSTYRVVSVLTVLHQDWLNGKEYKCKVSNKALGAPIEKTISKAKGQPREPQVCTLPPSRDELTKNQVSLSCAVKGFYPSDIAVEWESNGQPENNYKTTPPVLDSDGSFFLVSKLTVDKSRWQQGNVFSCSVMHEALHNHYTQKSLSLSP
light 1: EVQLLESGGGLVQPGGSLRLSCAASGFTFSSYAMSWVRQAPGKGLEWVSAIIGSGASTYYADSVKGRFTISRDNSKNTLYLQMNSLRAEDTAVYYCAKGWFGGFNYWGQGTLVTVSSASVAAPSVFIFPPSDEQLKSGTASVVCLLNNFYPREAKVQWKVDNALQSGNSQESVTEQDSKDSTYSLSSTLTLSKADYEKHKVYACEVTHQGLSSPVTKSFNRGEC
heavy 2: not shown
light 2: not shown
notes: huIgG1 PG-LALA CrossFab 1+1; also called P1AE3134
B6: FAP (4B9) - CD28 (CD28(SA)_Variant 11) 1+1 (bispecific antibody, human IgG1, kappa, L234A L235A)
heavy 1: EIVLTQSPGTLSLSPGERATLSCRASQSVTSSYLAWYQQKPGQAPRLLINVGSRRATGIPDRFSGSGSGTDFTLTISRLEPEDFAVYYCQQGIMLPPTFGQGTKVEIKSSASTKGPSVFPLAPSSKSTSGGTAALGCLVKDYFPEPVTVSWNSGALTSGVHTFPAVLQSSGLYSLSSVVTVPSSSLGTQTYICNVNHKPSNTKVDKKVEPKSCDKTHTCPPCPAPEAAGGPSVFLFPPKPKDTLMISRTPEVTCVVVDVSHEDPEVKFNWYVDGVEVHNAKTKPREEQYNSTYRVVSVLTVLHQDWLNGKEYKCKVSNKALGAPIEKTISKAKGQPREPQVCTLPPSRDELTKNQVSLSCAVKGFYPSDIAVEWESNGQPENNYKTTPPVLDSDGSFFLVSKLTVDKSRWQQGNVFSCSVMHEALHNHYTQKSLSLSP
light 1: EVQLLESGGGLVQPGGSLRLSCAASGFTFSSYAMSWVRQAPGKGLEWVSAIIGSGASTYYADSVKGRFTISRDNSKNTLYLQMNSLRAEDTAVYYCAKGWFGGFNYWGQGTLVTVSSASVAAPSVFIFPPSDEQLKSGTASVVCLLNNFYPREAKVQWKVDNALQSGNSQESVTEQDSKDSTYSLSSTLTLSKADYEKHKVYACEVTHQGLSSPVTKSFNRGEC
heavy 2: not shown
light 2: not shown
notes: huIgG1 PG-LALA CrossFab 1+1; also called P1AE3132

Key:
[1] = biological target: T1, biotinylated huCD28-Fc (dimeric CD28-Fc construct with a monovalent biotinylated avi-tag) (human, UniProt P10747 19-152, biotinylated at the C-terminal avi tag); test: SPR, ProteOn XPR36, huCD28-Fc on NLC chip, bispecific as analyte
T1 construct: not shown: hum IgG1 Fc fragment with hole and PG-LALA mutations; hum IgG1 Fc fragment with knob and PG-LALA mutations

[2] = biological target: human FAP on 3T3-huFAP cells (clone 19) (human, UniProt Q12884 1-760); test: flow cytometry on 3T3-huFAP cells, FAP-CD28 1+1 constructs, MFI (PE)
[3] = biological target: T2, human CD28 on CHO cells (parental cell line CHO-k1 ATCC #CCL-61, modified to stably overexpress human CD28) (human, UniProt P10747 19-220); test: binding to CHO cells expressing human CD28 (by the table's title)
T2 construct: also called hu CD28; CHO-hCD28

Binder | Kd [1] | koff [1] | kon [1] | binding result [2] | Kd [3]
B1 | 5.3 nM | 0.000994 s⁻¹ | 187000 M⁻¹ s⁻¹ | binds | 5.3 nM
B2 | 1 nM | 0.000267 s⁻¹ | 261000 M⁻¹ s⁻¹ | binds | 1 nM
B3 | 23.8 nM | 0.00521 s⁻¹ | 219000 M⁻¹ s⁻¹ | binds | 23.8 nM
B4 | 3.7 nM | 0.00125 s⁻¹ | 338000 M⁻¹ s⁻¹ | binds | 3.7 nM
B5 | 7.1 nM | 0.00184 s⁻¹ | 259000 M⁻¹ s⁻¹ | binds | 7.1 nM
B6 | 12.5 nM | 0.00287 s⁻¹ | 230000 M⁻¹ s⁻¹ | binds | 12.5 nM

— patent US20230416365A1 (Hoffmann-La Roche, published 2023)
